The results in this text go back to CN106866820A (AB-MAT MEDICINE TECH (SHANGHAI) CO LTD, dated 2017).

For experiment [1], the target named is T1, 人角蛋白18(CK18), on PC9 human lung cancer cells (human, UniProt P05783 2-430).
T1 construct: whole, on cells; Endogenous CK18 on non-permeabilised PFA-fixed PC9 cells (IF) or live PC-9 cells (capture); also called human keratin 18; cytokeratin 18
T1 sequence (looked up): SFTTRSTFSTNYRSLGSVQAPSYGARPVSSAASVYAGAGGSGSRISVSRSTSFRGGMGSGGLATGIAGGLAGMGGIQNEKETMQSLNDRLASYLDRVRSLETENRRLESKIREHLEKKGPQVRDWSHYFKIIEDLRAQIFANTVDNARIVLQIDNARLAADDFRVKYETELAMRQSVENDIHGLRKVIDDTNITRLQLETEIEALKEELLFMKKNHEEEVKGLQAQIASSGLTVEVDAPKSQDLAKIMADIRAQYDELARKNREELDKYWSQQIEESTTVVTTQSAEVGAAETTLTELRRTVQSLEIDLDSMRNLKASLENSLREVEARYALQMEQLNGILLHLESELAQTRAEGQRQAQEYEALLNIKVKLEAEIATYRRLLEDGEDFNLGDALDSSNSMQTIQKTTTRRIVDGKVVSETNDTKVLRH
Kind of experiment: immunofluorescence on PFA-fixed non-permeabilised PC9 cells, antibody 1:1000, FITC goat anti-mouse secondary.

Experiment [2] deals with T2, 人角蛋白18(CK18), endogenous protein in PC9 cell lysate / membrane protein extract (human, UniProt P05783 2-430).
T2 construct: Endogenous protein in lysate or extract; also called 48KD条带
T2 sequence (looked up): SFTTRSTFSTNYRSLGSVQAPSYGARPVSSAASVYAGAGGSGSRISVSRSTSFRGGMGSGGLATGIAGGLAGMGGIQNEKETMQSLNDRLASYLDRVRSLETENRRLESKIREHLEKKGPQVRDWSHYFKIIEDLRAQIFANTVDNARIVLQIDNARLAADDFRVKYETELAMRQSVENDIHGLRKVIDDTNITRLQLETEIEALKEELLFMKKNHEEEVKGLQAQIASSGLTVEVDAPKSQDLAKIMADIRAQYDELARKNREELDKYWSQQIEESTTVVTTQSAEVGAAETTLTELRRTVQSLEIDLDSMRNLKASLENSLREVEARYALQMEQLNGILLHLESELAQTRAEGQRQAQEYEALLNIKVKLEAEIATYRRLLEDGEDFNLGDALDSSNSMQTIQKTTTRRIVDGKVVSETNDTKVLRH
Nature of the experiment: Western blot on PC9 whole-cell lysate, antibody diluted 1:1000 and 1:2000. (In general: A western blot detects proteins with antibodies after separation by electrophoresis.)

B1: anti-CK18(克隆号1P1)抗体 (antibody, V domains shown)
VH: EVQLQESGPSLVKPSQTLSLTCSVTGDSFTSGYWNWIRKFPGNKLEYMGYISYSGNCYYNPSLKSRISITRDTSKNQYYLQMNSVTTEDTATYFCARASAYYYGSFYDYAMDYWGQGTSVTVSS
VL: DIVMTQSQKFMSTSVGDRVSITCKASQNVDTAVAWYQQKPGQSPKLLIYSASNRFPGVPDRFTGSGSGTDFTLTISNMQSEDLADYFCQQYSSYPFTFGSGTKLEIK
notes: also called anti-CK18 (clone 1P1); 克隆号1P1 anti-CK18抗体
For the molecule B1, the binding result in experiment [1] and in experiment [2] was “binds” in each case.
